# Data from patent US20260098059A1 (ENDOMET BIOSCIENCES, published 2026).
# Several values for one entry are separate records, joined by “and”; a condition that tells them apart may be missing. Identical values can stand only once. Bridges are numbered along the chain shown (N, C = ends). Where no end group is shown, it is not given here. [ ]: non-standard residue; d: D form. The star is where a group is joined. NMeW = CN[C@@H](Cc1c[nH]c2ccccc12)C(=O)O; αMeW = C[C@](N)(Cc1c[nH]c2ccccc12)C(=O)O; Stearoyl = CCCCCCCCCCCCCCCCCC(=O)*; αMeF = C[C@](N)(Cc1ccccc1)C(=O)O; 2Pal = N[C@@H](Cc1ccccn1)C(=O)O; Chg = N[C@H](C(=O)O)C1CCCCC1; αMeV = CC(C)[C@](C)(N)C(=O)O; αMeS = C[C@](N)(CO)C(=O)O; NMeA = CN[C@@H](C)C(=O)O
# T1: β-catenin (UniProt P35222 134-665, limits assumed, biotinylated in the SPR and plate assays)
# T1 sequence (looked up): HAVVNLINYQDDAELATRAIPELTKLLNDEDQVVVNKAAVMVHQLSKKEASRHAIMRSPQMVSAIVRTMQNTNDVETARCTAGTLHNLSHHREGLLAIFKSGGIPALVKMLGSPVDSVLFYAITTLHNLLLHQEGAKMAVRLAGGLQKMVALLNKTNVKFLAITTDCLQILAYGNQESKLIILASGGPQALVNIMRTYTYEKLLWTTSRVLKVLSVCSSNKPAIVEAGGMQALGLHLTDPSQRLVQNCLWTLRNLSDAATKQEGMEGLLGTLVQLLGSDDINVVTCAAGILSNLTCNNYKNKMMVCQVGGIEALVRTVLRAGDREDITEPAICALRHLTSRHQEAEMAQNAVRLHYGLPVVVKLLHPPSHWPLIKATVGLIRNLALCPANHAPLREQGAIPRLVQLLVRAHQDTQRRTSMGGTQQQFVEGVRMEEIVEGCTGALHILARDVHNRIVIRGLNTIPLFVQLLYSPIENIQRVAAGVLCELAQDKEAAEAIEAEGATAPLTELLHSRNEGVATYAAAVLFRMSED
# B1: SEQ ID NO: 186 (peptide)
# peptide: KMWFLICFWE
# HELM: PEPTIDE1{[ac].K.M.W.F.L.I.C.F.W.E}$PEPTIDE1,PEPTIDE1,2:R3-11:R3$$$V2.0
# SMILES: CC[C@H](C)[C@@H]1NC(=O)[C@H](CC(C)C)NC(=O)[C@H](Cc2ccccc2)NC(=O)[C@H](Cc2c[nH]c3ccccc23)NC(=O)[C@H](CCSC)NC(=O)[C@@H](NC(C)=O)CCCCNC(=O)CC[C@@H](C(=O)O)NC(=O)[C@H](Cc2c[nH]c3ccccc23)NC(=O)[C@H](Cc2ccccc2)NC(=O)[C@H](CS)NC1=O
# B2: SEQ ID NO: 164 (peptide)
# peptide: LWFLICFWG
# HELM: PEPTIDE1{[Nle].W.F.L.I.C.F.W.G}$$$$V2.0
# SMILES: CCCC[C@H](N)C(=O)N[C@@H](Cc1c[nH]c2ccccc12)C(=O)N[C@@H](Cc1ccccc1)C(=O)N[C@@H](CC(C)C)C(=O)N[C@H](C(=O)N[C@@H](CS)C(=O)N[C@@H](Cc1ccccc1)C(=O)N[C@@H](Cc1c[nH]c2ccccc12)C(=O)NCC(=O)O)[C@@H](C)CC
# B3: SEQ ID NO: 197 (peptide)
# peptide: MWFLICFW
# HELM: PEPTIDE1{[ac].M.W.F.L.I.C.F.W.[O=C(O)CCCN[*:1]]}$$$$V2.0
# SMILES: CC[C@H](C)[C@H](NC(=O)[C@H](CC(C)C)NC(=O)[C@H](Cc1ccccc1)NC(=O)[C@H](Cc1c[nH]c2ccccc12)NC(=O)[C@H](CCSC)NC(C)=O)C(=O)N[C@@H](CS)C(=O)N[C@@H](Cc1ccccc1)C(=O)N[C@@H](Cc1c[nH]c2ccccc12)C(=O)NCCCC(=O)O
# B4: SEQ ID NO: 102 (peptide)
# peptide: WFLISFW
# HELM: PEPTIDE1{[meW].F.L.I.S.F.W.[am]}$$$$V2.0
# SMILES: CC[C@H](C)[C@H](NC(=O)[C@H](CC(C)C)NC(=O)[C@H](Cc1ccccc1)NC(=O)[C@H](Cc1c[nH]c2ccccc12)NC)C(=O)N[C@@H](CO)C(=O)N[C@@H](Cc1ccccc1)C(=O)N[C@@H](Cc1c[nH]c2ccccc12)C(N)=O
# B5: SEQ ID NO: 36 (peptide)
# peptide: WWESILDEHVQRVWG
# HELM: PEPTIDE1{W.[meW].E.S.I.L.D.E.H.V.Q.R.V.W.G.[am]}$$$$V2.0
# SMILES: CC[C@H](C)[C@H](NC(=O)[C@H](CO)NC(=O)[C@H](CCC(=O)O)NC(=O)[C@H](Cc1c[nH]c2ccccc12)N(C)C(=O)[C@@H](N)Cc1c[nH]c2ccccc12)C(=O)N[C@@H](CC(C)C)C(=O)N[C@@H](CC(=O)O)C(=O)N[C@@H](CCC(=O)O)C(=O)N[C@@H](Cc1c[nH]cn1)C(=O)N[C@H](C(=O)N[C@@H](CCC(N)=O)C(=O)N[C@@H](CCCNC(=N)N)C(=O)N[C@H](C(=O)N[C@@H](Cc1c[nH]c2ccccc12)C(=O)NCC(N)=O)C(C)C)C(C)C
# B6: SEQ ID NO: 111 (peptide)
# peptide: WFLISFW
# HELM: PEPTIDE1{[meW].F.L.I.S.F.W}$$$$V2.0
# SMILES: CC[C@H](C)[C@H](NC(=O)[C@H](CC(C)C)NC(=O)[C@H](Cc1ccccc1)NC(=O)[C@H](Cc1c[nH]c2ccccc12)NC)C(=O)N[C@@H](CO)C(=O)N[C@@H](Cc1ccccc1)C(=O)N[C@@H](Cc1c[nH]c2ccccc12)C(=O)O
# B7: SEQ ID NO: 455 (peptide)
# peptide: WXQKILNDHGQRVW
# HELM: PEPTIDE1{[ac].W.[Aib].Q.K.I.L.N.D.H.[O=C([C@@H](N[*:1])C1CCCCC1)[*:2]].Q.R.V.W.[am]}$PEPTIDE1,PEPTIDE1,5:R3-9:R3$$$V2.0
# SMILES: CC[C@H](C)[C@@H]1NC(=O)[C@@H](NC(=O)[C@H](CCC(N)=O)NC(=O)C(C)(C)NC(=O)[C@H](Cc2c[nH]c3ccccc23)NC(C)=O)CCCCNC(=O)C[C@@H](C(=O)N[C@@H](Cc2c[nH]cn2)C(=O)N[C@H](C(=O)N[C@@H](CCC(N)=O)C(=O)N[C@@H](CCCNC(=N)N)C(=O)N[C@H](C(=O)N[C@@H](Cc2c[nH]c3ccccc23)C(N)=O)C(C)C)C2CCCCC2)NC(=O)[C@H](CC(N)=O)NC(=O)[C@H](CC(C)C)NC1=O
# Molecular target: T1, β-catenin
# Experiment: cell-based or functional assay
row,Wnt Reporter EC50,Binder
1,≤ 7500 nM,H-MWFLISFW-OH [SEQ ID NO: 112]
2,> 22500 nM and ≤ 30000 nM,H-KMWILISFWG-OH [SEQ ID NO: 122]
3,≤ 7500 nM,H-HMWILISFWG-OH [SEQ ID NO: 123]
4,> 30000 nM,B1
5,> 7500 nM and ≤ 15000 nM,MWFLISFWG-NH2 [SEQ ID NO: 108]
6,≤ 7500 nM,H-MWFLICFWG-OH [SEQ ID NO: 42]
7,≤ 7500 nM,H-MWILICFWG-OH [SEQ ID NO: 116]
8,> 7500 nM and ≤ 15000 nM,H-MWFLIC[2Pal]WG-OH [SEQ ID NO: 148]
9,> 7500 nM and ≤ 15000 nM,H-MWILIS[αMeF]WG-OH [SEQ ID NO: 128]
10,> 7500 nM and ≤ 15000 nM,H-M[αMeW]ILICFWG-OH [SEQ ID NO: 132]
11,> 15000 nM and ≤ 22500 nM,H-MWILI[dT]FWG-OH [SEQ ID NO: 137]
12,≤ 7500 nM,H-DWFLICFWG-OH [SEQ ID NO: 142]
13,> 7500 nM and ≤ 15000 nM,H-WWILISFWG-OH [SEQ ID NO: 127]
14,≤ 7500 nM,H-MWILISFWG-OH [SEQ ID NO: 43]
15,> 7500 nM and ≤ 15000 nM,H-MWFLIQFYG-OH [SEQ ID NO: 149]
16,> 7500 nM and ≤ 15000 nM,H-MW[αMeF]LICFWG-OH [SEQ ID NO: 131]

row,Wnt Reporter EC50,Binder
1,≤ 7500 nM,H-HWILISFWG-OH [SEQ ID NO: 126]
2,> 30000 nM,H-MWILI[αMeS]FWG-OH [SEQ ID NO: 136]
3,≤ 7500 nM,H-MWILIC[αMeF]WG-OH [SEQ ID NO: 121]
4,≤ 7500 nM,Ac-MWILISFWG-OH [SEQ ID NO: 165]
5,> 15000 nM and ≤ 22500 nM,H-MWFLIKFYG-OH [SEQ ID NO: 151]
6,≤ 7500 nM,B2
7,≤ 7500 nM,H-MWILISSWG-OH [SEQ ID NO: 129]
8,> 22500 nM and ≤ 30000 nM,H-KWILISFWG-OH [SEQ ID NO: 125]
9,> 7500 nM and ≤ 15000 nM,H-MWFLISSW-OH [SEQ ID NO: 96]
10,≤ 7500 nM,B3
11,> 15000 nM and ≤ 22500 nM,B4
12,> 30000 nM,B5
13,> 30000 nM,H-MWE[αMeS]ILDEHVQRVWG-NH2 [SEQ ID NO: 35]
14,> 30000 nM,H-MWESILDEH[αMeV]QRVWG-NH2 [SEQ ID NO: 34]
15,> 7500 nM and ≤ 15000 nM,B6

# Molecular target: T1, β-catenin
# Experiment: competitive FP
# Summary of the method: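 Competitive fluorescence polarization with inhibitor peptide serially diluted from 10 nM to 30 uM; polarization read at 470 nm excitation, 520 nm emission. Experiments performed three times.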
row,Kd,Binder
1,≤ 400 nM,Stearoyl-GW[NMeW]ESILDEHVQRVWG-OH [SEQ ID NO: 2]
2,> 400 nM and ≤ 1000 nM,H-MWFLISFW-OH [SEQ ID NO: 112]
3,> 400 nM and ≤ 1000 nM,"Ac-W[NMeA]QKILDEH[Chg]EDVWK-NH2 (lactam 11-15, 4-8 (inferred)) [SEQ ID NO: 464]"
4,≤ 400 nM,H-KMWILISFWG-OH [SEQ ID NO: 122]
5,≤ 400 nM,H-HMWILISFWG-OH [SEQ ID NO: 123]
6,> 400 nM and ≤ 1000 nM,B1
7,> 400 nM and ≤ 1000 nM,MWFLISFWG-NH2 [SEQ ID NO: 108]
8,≤ 400 nM,H-MWFLICFWG-OH [SEQ ID NO: 42]
9,> 400 nM and ≤ 1000 nM,H-MWILICFWG-OH [SEQ ID NO: 116]
10,> 400 nM and ≤ 1000 nM,H-MWFLIC[2Pal]WG-OH [SEQ ID NO: 148]
11,> 400 nM and ≤ 1000 nM,H-MWILIS[αMeF]WG-OH [SEQ ID NO: 128]
12,≤ 400 nM,H-M[αMeW]ILICFWG-OH [SEQ ID NO: 132]
13,> 400 nM and ≤ 1000 nM,H-MWILI[dT]FWG-OH [SEQ ID NO: 137]
14,≤ 400 nM,H-DWFLICFWG-OH [SEQ ID NO: 142]
15,> 400 nM and ≤ 1000 nM,H-WWILISFWG-OH [SEQ ID NO: 127]
16,> 400 nM and ≤ 1000 nM,H-MWILISFWG-OH [SEQ ID NO: 43]
17,> 400 nM and ≤ 1000 nM,H-MWFLIQFYG-OH [SEQ ID NO: 149]
18,≤ 400 nM,H-MW[αMeF]LICFWG-OH [SEQ ID NO: 131]

row,Kd,Binder
1,≤ 400 nM,H-HWILISFWG-OH [SEQ ID NO: 126]
2,> 400 nM and ≤ 1000 nM,H-MWILI[αMeS]FWG-OH [SEQ ID NO: 136]
3,≤ 400 nM,H-MWILIC[αMeF]WG-OH [SEQ ID NO: 121]
4,≤ 400 nM,Ac-MWILISFWG-OH [SEQ ID NO: 165]
5,> 400 nM and ≤ 1000 nM,H-MWFLIKFYG-OH [SEQ ID NO: 151]
6,> 400 nM and ≤ 1000 nM,B2
7,> 400 nM and ≤ 1000 nM,H-MWILISSWG-OH [SEQ ID NO: 129]
8,> 400 nM and ≤ 1000 nM,H-KWILISFWG-OH [SEQ ID NO: 125]
9,> 400 nM and ≤ 1000 nM,Ac-W[NMeA]QKILNDH[Chg]QAVW-NH2 (lactam 4-8) [SEQ ID NO: 458]
10,> 10000 nM and ≤ 30000 nM,H-MWFLISSW-OH [SEQ ID NO: 96]
11,> 400 nM and ≤ 1000 nM,B3
12,≤ 400 nM,B4
13,≤ 400 nM,B5
14,≤ 400 nM,H-MWE[αMeS]ILDEHVQRVWG-NH2 [SEQ ID NO: 35]
15,≤ 400 nM,H-MWESILDEH[αMeV]QRVWG-NH2 [SEQ ID NO: 34]
16,> 400 nM and ≤ 1000 nM,B6
17,≤ 400 nM,B7
18,> 10000 nM and ≤ 30000 nM,MMVQSLFVPPVK (not fully specified; cyclo-glutaryl-*MM-NMeNva-QSLF-NMeNva-PP-NMeNva-K*-CONH2) [SEQ ID NO: 3]
